Data taken from the supplement of paper PMC7125110.
± gives the standard error. This sample holds only a part of the variants without activity.

B1: glmS ribozyme (parent)
chain: AUAAAAGCGCCAGAACUACAGAAAUGUAGUUGACGAGGAGGAGGUUUAUCGAAUUUUCGGCGGAUGCCUCCAAA

Variants of: B1
Assay: self-cleavage kobs at 10000 uM GlcN6P; higher = faster cleavage; RNA array
Settings: with glucosamine-6-phosphate
In short: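 Glucosamine-6-phosphate in HEPES/KCl/Mg(OAc)2 buffer, at 40 μM to 10 mM, was flowed over barcoded ribozyme variants transcribed in situ by E. coli RNA polymerase on sequenced MiSeq chips. Tracking was through a hybridised Cy3 probe at 37 °C. kobs, kcat and KM came from exponential decay fits and weighted Michaelis–Menten fits of normalised per-tile medians.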

Variant	self-cleavage kobs at 10000 uM GlcN6P
G40C A52C	< 1e-05 s⁻¹
C50A U55G U57C	< 1e-05 s⁻¹
U56A C67U C71G	5.21e-05 ± 8.7e-06 s⁻¹
G37U G38A G51U	< 1e-05 s⁻¹
C50U U55C	4.47e-05 ± 1.1e-05 s⁻¹
A42U U46C C50A A53U	< 1e-05 s⁻¹
G40A A53G C70A	0.000157 ± 3.7e-05 s⁻¹
G43C U55A G60U	< 1e-05 s⁻¹
A42C U45C C50U	< 1e-05 s⁻¹
U45A A52U C61A	< 1e-05 s⁻¹
A48G G66A	2.4e-05 ± 1.2e-05 s⁻¹
G37U G60U U69C	< 1e-05 s⁻¹
G38U U45A C58A U65C	< 1e-05 s⁻¹
A39C G43C C50A	< 1e-05 s⁻¹
A39U G51U C70A	< 1e-05 s⁻¹
G38A A39U U54A	< 1e-05 s⁻¹
G40C A53U C61A	< 1e-05 s⁻¹
G38U G41U A48U A52G U56C G60A C68G C71U	< 1e-05 s⁻¹
C50U G60U C70A	< 1e-05 s⁻¹
U54A A64C	0.000157 ± 2.8e-05 s⁻¹
C50U A53U G62A	< 1e-05 s⁻¹
G44C U56G	5.6e-05 ± 1.2e-05 s⁻¹
U45C U54G C70A	5.88e-05 ± 1.3e-05 s⁻¹
G44U U54C	0.000226 ± 5e-05 s⁻¹

Variant	self-cleavage kobs at 10000 uM GlcN6P
G37U G38A U45G G51A	< 1e-05 s⁻¹
U49A A53C G63U C71G	< 1e-05 s⁻¹
C50U C58A C67U	< 1e-05 s⁻¹
C50G A53G C68G C70A	7.46e-05 ± 1.9e-05 s⁻¹
A42G U45C U46C	0.00102 ± 0.00019 s⁻¹
U47G A48U C68U	9.1e-05 ± 1.8e-05 s⁻¹
G66A C68U C71A	0.000105 ± 1.9e-05 s⁻¹
A39C U46A U55A U57A	< 1e-05 s⁻¹
U46A C68A C71A	< 1e-05 s⁻¹
U57G A64G	9.48e-05 ± 1.8e-05 s⁻¹
G37C G51A U69A	< 1e-05 s⁻¹
U54A G60U A64U	< 1e-05 s⁻¹
U57C C58A	2.32e-05 ± 9.2e-06 s⁻¹
G44A A64G	3.74e-05 ± 1.4e-05 s⁻¹
A39C G40U G59C C70U	< 1e-05 s⁻¹
A39U U47A C67U	0.00456 ± 0.0007 s⁻¹
G40A G59U C61A	< 1e-05 s⁻¹
U47G G66C	0.000614 ± 0.00011 s⁻¹
G38U A39G A42C A48U	< 1e-05 s⁻¹
A48U C61A C70G	< 1e-05 s⁻¹
G38C A39U U46C	< 1e-05 s⁻¹
G40A G44U A64C	< 1e-05 s⁻¹
U54A G60A	3.42e-05 ± 1.5e-05 s⁻¹
G63A A64U C68U	< 1e-05 s⁻¹

Variant	self-cleavage kobs at 10000 uM GlcN6P
U45A U46C C67G	0.000673 ± 0.00013 s⁻¹
C50U G51U C70U	< 1e-05 s⁻¹
G41A C61G A64U	< 1e-05 s⁻¹
G38C A53C C67U	< 1e-05 s⁻¹
A53G U56G C71G	0.00022 ± 5.2e-05 s⁻¹
G37A G51U C68G	< 1e-05 s⁻¹
G43C G51U G62U	< 1e-05 s⁻¹
G41U A53G C71A	0.000206 ± 4.7e-05 s⁻¹
U47A A53U C68G	4.16e-05 ± 1.7e-05 s⁻¹
U56A C58A C67G	7.18e-05 ± 2.4e-05 s⁻¹
G43U U55G	3.47e-05 ± 1.3e-05 s⁻¹
G41C G59U G60C	< 1e-05 s⁻¹
G43U U46G C50U C58A	< 1e-05 s⁻¹
G44A U56A A64G	0.000101 ± 2.4e-05 s⁻¹
A39G C61A G62U	< 1e-05 s⁻¹
U47A C50G G63U U69G	5.11e-05 ± 1.5e-05 s⁻¹
U54C C58G G63C	< 1e-05 s⁻¹
G37U A52G A64C C70A	< 1e-05 s⁻¹
G38A C61A C71U	< 1e-05 s⁻¹
G43U G62A	< 1e-05 s⁻¹
G43A U46A G59C	< 1e-05 s⁻¹
G37A G43U U55G C68G	0.000281 ± 7.9e-05 s⁻¹
G40C G41U G62A	< 1e-05 s⁻¹
A42U G62A U69G	< 1e-05 s⁻¹

Variant	self-cleavage kobs at 10000 uM GlcN6P
G38U A53U	< 1e-05 s⁻¹
G43A G59C C67G	< 1e-05 s⁻¹
A39U U49G U54G	0.00053 ± 0.00012 s⁻¹
G37A U56C G66U	2.45e-05 ± 1.1e-05 s⁻¹
G41C C50A G62U	< 1e-05 s⁻¹
G37C G41A G51U G62U C67A	< 1e-05 s⁻¹
G38U A52U C58U	< 1e-05 s⁻¹
A39C G44A G59C	< 1e-05 s⁻¹
U46C G62A G66A C71A	< 1e-05 s⁻¹
G37C G63U	< 1e-05 s⁻¹
A52U G66U C67A	8.48e-05 ± 2.8e-05 s⁻¹
U65C U69C	0.000106 ± 2.2e-05 s⁻¹
A39G G44U C71U	3.94e-05 ± 1.7e-05 s⁻¹
A39G C67A C68A	6.69e-05 ± 1.7e-05 s⁻¹
G44A U65G C67U	0.00292 ± 0.00045 s⁻¹
G37C A53G U55G	3.2e-05 ± 1.4e-05 s⁻¹
G51C A52U U57C G59U	< 1e-05 s⁻¹
A39C U57A C58G G63U	< 1e-05 s⁻¹
A39G G44A U57A C61U C70U	< 1e-05 s⁻¹
U47C U65G C71U	0.00338 ± 0.00055 s⁻¹
U54C G59A	8.08e-05 ± 1.3e-05 s⁻¹
G44U A48G C50U C71U	< 1e-05 s⁻¹
G38A A42U C50G C67G	0.000231 ± 6.8e-05 s⁻¹
U47G U55C C67A	0.000309 ± 4.9e-05 s⁻¹

Variant	self-cleavage kobs at 10000 uM GlcN6P
G44U A64C C70U	< 1e-05 s⁻¹
G37U G43U G59A	< 1e-05 s⁻¹
G37C U54G	3.98e-05 ± 8.6e-06 s⁻¹
A52G U65G C71G	2.3e-05 ± 1.1e-05 s⁻¹
A52C U54G C71G	< 1e-05 s⁻¹
G41C U56G G62U	< 1e-05 s⁻¹
U49A C50A	< 1e-05 s⁻¹
G38U U49C G63A	< 1e-05 s⁻¹
G44U U57G G66A C70G	< 1e-05 s⁻¹
C61A U69C	< 1e-05 s⁻¹
A39C A42U U46G	3.93e-05 ± 1.5e-05 s⁻¹
U45C U49G	3.08e-05 ± 1.4e-05 s⁻¹
A42U U65G U69G	0.00259 ± 0.00036 s⁻¹
G40U U45A C70G	0.000163 ± 3.4e-05 s⁻¹
A39C C50A A53C G66U	< 1e-05 s⁻¹
A39C G51A C58U G62U	< 1e-05 s⁻¹
C50U G59U A64U	< 1e-05 s⁻¹
U56C U57A	8.46e-05 ± 1.3e-05 s⁻¹
C61U G62U C67U	< 1e-05 s⁻¹
A48G A52G C71G	< 1e-05 s⁻¹
A42C G51A G63U	< 1e-05 s⁻¹
G44C U55C U57C G59U	< 1e-05 s⁻¹
U49A U56A A64C	< 1e-05 s⁻¹
A53U U65G C67U	0.00235 ± 0.00042 s⁻¹
